Data taken from patent US20090324603A1 (VAN ANDEL RESEARCH INSTITUTE, published 2009).

Columns and labels:
[1] = target: human c-Met (HGF/SF receptor) on S114 and MKN45 cells (human, UniProt P08581 25-1390); assay: cell-based or functional assay
[2] = target: T1, recombinant c-Met antigen (human, UniProt P08581 25-932, limits assumed); assay: non-competitive ELISA, Kd of scFv-S1 against Kd of the original Fab
T1 construct: also called immobilized Met antigen; human Met antigen
Procedure: (§1) The most commonly used formula was established by David Beatty and the equation was Kaff=(n−1)/(2{n[Ab′]ₜ−[Ab]ₜ}) (n=[Ag]/[Ag′]). This method utilized OD-50 of the sigmoid curve and obviated the need for affinity purification of antibody used as standard. Using serial dilutions of both antigen ([Ag], [Ag′]) and antibody (scFv antibody), the affinity constant (Kaff) was measured by non-competitive ELISA. Two sigmoid curves of optical density (OD) versus logarithms of antibody concentrations were estimated by SPSS 10.0 software. The maximum value of OD (OD-100) of each curve was computed respectively and OD-50, half of OD-100, was obtained. Then the concentrations of antibody corresponding to OD-50 on the curves, named [Ab]ₜ and [Ab′]ₜ were calculated. For [Ag′]=½[Ag], Kaff=1/{2[Ab′]ₜ−[Ab]ₜ}.

[3] = target: T1, recombinant c-Met antigen; assay: non-competitive ELISA with serial dilutions of both Met and scFv (Beatty method)
Procedure: as §1

Chain of human c-Met (HGF/SF receptor) on S114 and MKN45 cells (P08581 25-1390): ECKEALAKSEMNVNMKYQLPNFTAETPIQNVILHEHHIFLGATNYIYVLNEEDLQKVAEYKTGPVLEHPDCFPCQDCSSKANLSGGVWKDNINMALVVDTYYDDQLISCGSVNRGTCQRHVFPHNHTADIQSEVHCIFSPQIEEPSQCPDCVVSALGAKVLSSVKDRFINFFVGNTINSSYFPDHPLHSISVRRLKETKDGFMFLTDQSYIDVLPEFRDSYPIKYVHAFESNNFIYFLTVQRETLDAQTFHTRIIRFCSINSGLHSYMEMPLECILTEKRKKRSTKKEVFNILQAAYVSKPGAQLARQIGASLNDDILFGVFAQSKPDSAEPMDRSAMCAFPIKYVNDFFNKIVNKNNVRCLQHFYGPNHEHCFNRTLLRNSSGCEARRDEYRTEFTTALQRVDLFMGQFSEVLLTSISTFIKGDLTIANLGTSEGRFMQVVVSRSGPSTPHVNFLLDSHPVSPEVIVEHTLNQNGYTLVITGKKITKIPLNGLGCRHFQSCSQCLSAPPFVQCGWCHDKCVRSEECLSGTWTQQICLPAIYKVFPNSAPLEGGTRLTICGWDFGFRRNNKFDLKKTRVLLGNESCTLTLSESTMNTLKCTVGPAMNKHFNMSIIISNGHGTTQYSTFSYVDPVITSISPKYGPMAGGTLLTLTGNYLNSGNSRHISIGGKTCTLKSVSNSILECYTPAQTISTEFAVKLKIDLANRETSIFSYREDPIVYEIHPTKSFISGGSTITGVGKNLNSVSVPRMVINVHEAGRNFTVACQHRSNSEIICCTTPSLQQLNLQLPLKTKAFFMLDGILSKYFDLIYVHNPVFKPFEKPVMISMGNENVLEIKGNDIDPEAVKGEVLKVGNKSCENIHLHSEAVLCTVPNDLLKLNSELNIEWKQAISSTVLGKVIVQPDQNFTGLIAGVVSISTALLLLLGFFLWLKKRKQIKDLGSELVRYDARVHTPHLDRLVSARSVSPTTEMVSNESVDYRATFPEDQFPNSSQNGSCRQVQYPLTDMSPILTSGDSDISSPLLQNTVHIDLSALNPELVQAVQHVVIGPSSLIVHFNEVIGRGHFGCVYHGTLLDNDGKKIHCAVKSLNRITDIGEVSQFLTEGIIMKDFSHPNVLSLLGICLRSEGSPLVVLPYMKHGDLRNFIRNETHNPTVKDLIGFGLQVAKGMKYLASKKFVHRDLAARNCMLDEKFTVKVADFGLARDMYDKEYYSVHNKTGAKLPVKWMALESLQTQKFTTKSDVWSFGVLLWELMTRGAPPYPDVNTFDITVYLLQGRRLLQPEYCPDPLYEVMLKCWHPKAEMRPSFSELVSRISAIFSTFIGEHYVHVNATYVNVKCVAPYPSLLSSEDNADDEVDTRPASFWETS
T1 sequence (P08581 25-932 limits assumed): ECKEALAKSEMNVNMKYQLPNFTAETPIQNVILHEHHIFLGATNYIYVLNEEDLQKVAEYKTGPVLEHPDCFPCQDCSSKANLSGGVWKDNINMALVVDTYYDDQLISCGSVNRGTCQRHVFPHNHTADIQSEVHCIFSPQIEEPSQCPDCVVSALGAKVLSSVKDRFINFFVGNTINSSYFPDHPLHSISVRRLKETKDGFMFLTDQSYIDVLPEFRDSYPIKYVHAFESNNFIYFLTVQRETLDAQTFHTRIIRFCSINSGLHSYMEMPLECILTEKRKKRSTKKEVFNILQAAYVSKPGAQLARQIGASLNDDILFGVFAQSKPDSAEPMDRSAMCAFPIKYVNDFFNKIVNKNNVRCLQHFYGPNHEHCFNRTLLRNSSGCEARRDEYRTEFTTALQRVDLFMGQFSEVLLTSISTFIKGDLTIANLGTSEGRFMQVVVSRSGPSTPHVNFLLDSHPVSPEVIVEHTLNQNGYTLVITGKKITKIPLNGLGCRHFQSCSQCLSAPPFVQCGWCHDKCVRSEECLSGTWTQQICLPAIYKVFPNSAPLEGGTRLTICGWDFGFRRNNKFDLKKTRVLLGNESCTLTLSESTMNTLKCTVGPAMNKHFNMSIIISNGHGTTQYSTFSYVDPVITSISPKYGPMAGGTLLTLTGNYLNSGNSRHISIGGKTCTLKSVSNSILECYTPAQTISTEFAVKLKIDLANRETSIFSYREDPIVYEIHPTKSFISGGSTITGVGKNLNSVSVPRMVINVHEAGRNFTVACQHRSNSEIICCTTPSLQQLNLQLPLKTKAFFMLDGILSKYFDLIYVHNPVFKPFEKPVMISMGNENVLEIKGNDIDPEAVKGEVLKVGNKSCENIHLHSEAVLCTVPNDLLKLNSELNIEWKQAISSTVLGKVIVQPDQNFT

Binder	inhibition ratio of S114 cells incubated with 800 ng Fab and Hum-ZAP, 72 hrs [1]	inhibition ratio of S114 cells incubated with 800 ng Fab and Hum-ZAP, 96 hrs [1]	fold increase in affinity against the original Fab [2]	Kd [3]
anti-Met Fab-Met-2 (Fab, V domains shown) VH: EVQLVESGGGVVQPGRSLRLSCAASGFTFSSYAMHWVRQAPGKGLEWVAVIWYDGSNRYYADSVKGRFTISRDNSKNTLYLQMNSLRAEDTAVYYCASQATEGLIWGQGTLVTVSP VL: ELQMTQSPSLLSASTGDRVTISCRASQSISSYLNWYQQKPGKAPKLLIYTRSSLQSGVPSRFSGSGSGTDFTLTISSLQPEDFATYYCQQSYSTPHTFGQGTKLEIKR	73.8%	62.7%	–	–
anti-Met scFv-S1 (scFv, also called scFv Si; S1 phage) scFv: ELQMTQSPSLLSASTGDRVTISCRASQSISSYLNWYQQKPGKAPKLLIYTRSSLQSGVPSRFSGSGSGTDFTLTISSLQPEDFATYYCQQSYSTPHTFGQGTKLEIKGGSSRSSSSGGGGSGGGGEVQLVESGGGVVQPGRSLRLSCAASGFTFSSYAMHWVRQAPGKGLEWVAVIWYDGSNRYYADSVKGRFTISRDNSKNTLYLQMNSLRAEDTAVYYCASQATEGLIWGQGTLVTVSP	–	–	117 times	51.5 nM
